These results are taken from paper PMC4234289, “The LexA regulated genes of the Clostridium difficile” (BMC Microbiology, 2014).

The target in the test is T1, C. difficile RecA, activated (RecA*) (Clostridium difficile 630, UniProt Q18BJ4 1-348).
T1 construct: Protein RecA (recombinase A) of Clostridium difficile strain 630; also called RecA* (CD); source: E. coli BL21 (DE3), purified (Ni-NTA, PD10 desalting)
T1 sequence (looked up): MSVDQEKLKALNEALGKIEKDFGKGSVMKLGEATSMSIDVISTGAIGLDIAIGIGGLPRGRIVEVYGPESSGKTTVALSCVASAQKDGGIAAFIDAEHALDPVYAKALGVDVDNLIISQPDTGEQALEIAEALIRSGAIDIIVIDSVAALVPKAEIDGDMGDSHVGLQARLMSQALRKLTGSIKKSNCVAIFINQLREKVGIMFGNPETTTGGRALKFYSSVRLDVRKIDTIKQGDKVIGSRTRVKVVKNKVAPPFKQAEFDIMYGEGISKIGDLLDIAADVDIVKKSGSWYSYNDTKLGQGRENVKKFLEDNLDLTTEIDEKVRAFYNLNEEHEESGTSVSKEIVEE
In words: SPR; Biacore X, 25°C; RecA* immobilised on the chip (~2000 response units); LexA (2.6 μM) incubated with non-specific 22-bp DNA (recA operator with six nucleotides changed, 1.4-8.1 μM) passed over at 10 μl/min for 60 s; 20 mM NaH2PO4 pH 7.4, 150 mM NaCl, 2 mM MgCl2, 1 mM DTT, 1 mM ATP, 0.005% P20. As to conditions: both partners purified. A general note: SPR reads the build-up and loss of mass on a sensor chip optically.

B1: C. difficile LexA repressor (natural protein, Clostridium difficile 630, UniProt Q187P1 1-211, looked up)
chain: MYLDLTEKQVLILEFIKSQIILKGYPPAVREICTAVGLRSTSTVHSHLNKLEKLGYIRKDPTKPRAIEVLERSKVNDVSGANQEIIELPLVGQITAGEPILAQQNIEEYIPFPASLVKGSNNFVLRVKGESMINAGILDEDYVVVDKKNTALNSQIVVALINGESATVKRFFKEGNLIRLQPENDFMEPIMLNDSEVEIVGIVTGVFRVIK
notes: LexA repressor of Clostridium difficile strain 630; In the SPR with RecA* LexA was pre-incubated with 22-bp DNA; also called LexA (CD); DinR; source: E. coli BL21 (DE3), purified (Ni-NTA, PD10 desalting)
As to B1, the binding result is given as “binds”.
